Measured values from US20140087991A1, “PEPTIDE PRODRUGS” (The Johns Hopkins University, priority 2006, published 2014).
Peptide text beside a SMILES is read from it.

Key:
[1] = biological target: T1, FAP (Homo sapiens, UniProt Q12884); experiment: FAP gelatinase and collagenase assay with quenched (DQ) proteins; assay type: biochemical; conditions: for hydrolysis of FITC-quenched protein by FAP: 100 μgs/ml protein substrate
T1 construct: the extracellular domain of FAP was cloned with a His-6 tag; made in house
T1 sequence (Q12884 26-760 limits assumed): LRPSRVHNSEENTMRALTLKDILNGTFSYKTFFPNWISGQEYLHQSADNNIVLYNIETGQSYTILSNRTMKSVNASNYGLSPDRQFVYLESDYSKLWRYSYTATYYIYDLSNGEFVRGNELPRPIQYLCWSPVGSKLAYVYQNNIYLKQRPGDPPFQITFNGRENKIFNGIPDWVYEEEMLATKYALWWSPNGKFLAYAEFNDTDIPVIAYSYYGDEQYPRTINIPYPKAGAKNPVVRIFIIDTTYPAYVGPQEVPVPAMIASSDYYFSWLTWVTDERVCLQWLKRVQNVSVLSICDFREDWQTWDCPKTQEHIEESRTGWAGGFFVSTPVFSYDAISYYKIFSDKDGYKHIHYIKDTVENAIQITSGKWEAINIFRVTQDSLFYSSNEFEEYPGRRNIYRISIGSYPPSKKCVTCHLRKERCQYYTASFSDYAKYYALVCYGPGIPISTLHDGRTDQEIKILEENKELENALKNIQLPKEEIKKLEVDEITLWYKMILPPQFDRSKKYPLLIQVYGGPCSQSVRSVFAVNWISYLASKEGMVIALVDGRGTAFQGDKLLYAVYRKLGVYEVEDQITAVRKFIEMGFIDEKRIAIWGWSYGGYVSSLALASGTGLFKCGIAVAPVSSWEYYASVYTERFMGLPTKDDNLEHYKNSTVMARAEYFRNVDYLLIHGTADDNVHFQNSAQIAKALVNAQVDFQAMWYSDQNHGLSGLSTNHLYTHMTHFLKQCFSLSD
Protocol: Quenched gelatin and collagen conjugates were used to detect and confirm FAP's gelatinase and collagenase activity. DQ™ Gelatin from pig skin, DQ™ collagen, type IV from human placenta, DQ™ collagen, type I from bovine skin, all as fluorescent conjugates (Invitrogen, Rockville, Md.) were digested with FAP and digestion monitored on a fluorescence plate reader. Protein substrates were dissolved in reaction buffer (100 mM NaCl, 100 mM Tris, pH 7.8) to a final concentration of 100 μgs/ml. Trypsin digestion was used as a positive control. As a negative control the His tagged extra cellular domain of Prostate Specific Membrane Antigen (PSMA), which was similarly purified from S2 cells under the same conditions as FAP. Fluorescent quenched DQ™ Bovine Serum Albumin was used as a negative control for FAP protease activity.
Quenched forms of Gelatin and Collagen were used to confirm the gelatinase and collagenase activity of recombinant FAP. Quenching is achieved by labeling these proteins with the fluorophore FITC such that fluorescence signal from the intact protein is minimal due to is self-quenching by the fluorphore. Protein digestion releases FITC-labeled fragments that result in measurable increase in overall fluorescence signal from the reaction mixture. […] On a relative basis gelatin was digested ˜10-fold better by FAP than collagen I. MALDI analysis of digested fragments was performed to confirm hydrolysis.

[2] = biological target: T1, FAP; experiment: LC-MS/MS cleavage map of FAP digest of 100 kDa recombinant human gelatin; assay type: biochemical; conditions: 100 kDa gelatin digest; for Percentage: share of all occurrences
Protocol: (§1) Human collagen I (Becton Dickinson, Franklin Lakes, N.J.) and recombinant human gelatins of 100 KDa and 8.5 KDa (Fibrogen, San Francisco, Calif.) were dissolved in reaction buffer to a final concentration of 100-300 μg/ml. 0.5-1 μg of FAP was added per 100 μgs of protein substrate. Digestion was done for 4-6 hrs at 37° C. As a positive control trypsin digestion was used. As a negative control, protein solutions were incubated either with BSA or buffer only. Peptide fragments of a size <30 KDa were purified using 30 KDa Microcon spin filter (Millipore, Billerica, Mass.).
(§2) Peptides obtained from FAP/gelatin digests were dried using a speedvac (Eppendorf), resuspended in LC/MS loading buffer (3% ACN, 0.1% formic acid), and analyzed using nano-flow LC/MS/MS on an Agilent 1100 series nano-LC system (Agilent) coupled to an LCQ Duo ion trap mass spectrometer (ThermoFinnigan). Peptides were pre-concentrated on a 5 mm Zorbax C18 trap column (Agilent) and then eluted onto a 100×0.075 mm custom-packed Biobasic C18 (ThermoElectron) reversed phase capillary column connected to a laser-pulled electrospray ionization emitter tip (New Objective) at a flowrate of 300 nl/min Peptides were eluted the nanospray source of the LCQ (Proxeon, Denmark) using the following gradient: 0% B at 0 min, 5% B at 8 min, 45% B at 50 min, 90% B at 55 min, 90% B at 60 min (B=0.1% formic acid in acetonitrile) at a spray voltage of 2.5 kV. The LCQ was operated in data-dependent mode using the Xcalibur software (ThermoFinnigan) in which every MS scan (400-1800 m/z) was followed by MS/MS scans (400-1800 m/z) on the 3 most intense ions using an isolation window of ±1.5 Da. Ions selected for MS/MS fragmentation were dynamically excluded for 30 s.
(§3) MS/MS data were searched against a collagen FASTA database using the SEQUEST search algorithm built into the Bioworks Browser (ThermoFinnigan) allowing for the variable modification of Methionine oxidation. Peptides were initially filtered in a charge dependent manner using an XCorr filter of 1.5, 2, and 2.5 for singly, doubly, and triply charged peptides. All MS/MS spectra used to identify peptides were manually inspected for validation of y and b-ion series. To quantify the relative abundance of each identified peptide we compared the ion current for each of the observed peptide parent ions from the MS spectra. The contribution of each parent ion to the total ion current was extracted and integrated over the peptide elution peak.
To resolve each particular mass fragment a Liquid Chromatograpy (LC) and Tandem mass spectroscopy (MS-MS) [LC-MS-MS] method was developed. Using this method, peptide fragments from FAP digests of the 8.5 kDa and 100 kDa recombinant gelatin were time-resolved by nano reverse phase LC (FIGS. 12 and 14) and then sequenced using an ion trap mass spectrometer operating in MS/MS mode. Initial methodological issues were worked out using the 8.5 kDa fragment before analyzing the entire 100 kDa protein. MS/MS spectra were searched against the 8.5 kDa and 100 kDa gelatin sequences using the SEQUEST algorithm with no cleavage specificity. Most of the identified cleavage sites in both sized gelatins occurred after Proline. However, FAP cleavage sites in these gelatins were not restricted to Proline alone. FAP was also found to cleave after Ala (e.g. A/A, A/G, A/P, A/R), Asp (e.g. D/G, D/T), Gly (e.g. G/A, G/E, G/L, G/Q, G/P, G/V), Glu (i.e., E/P), Lys (i.e., K/A, K/G), Ser (e.g. S/P) and Val (e.g. V/G).
To identify the most preferentially cleaved sites, we relatively quantified the abundance of each of the identified peptides by integrating the ion current generated by each peptide throughout the chromatogram. After identification of a peptide from a MS/MS spectrum, we extracted the ion current for the parent mass of the ion from the total MS ion chromatogram using a 1.5 Da tolerance window, and then integrated under the peak (FIGS. 12 and 14). […]

[3] = biological target: T1, FAP; experiment: LC-MS/MS cleavage map of FAP digest of 8.5 kDa recombinant human gelatin; assay type: biochemical; conditions: 8.5 kDa gelatin digest; for Normalized Ion Current: peak with lowest ion current assigned 1.0
Protocol: as §1, §2, §3
As Collagen I and Gelatin are currently the only known protein substrates for FAP, we needed to develop an alternative method to identify FAP-selective cleavage sites within these proteins. […] The masses of fragments <3 KDa were purified for MALDI spectra and again analyzed by FindPept tool. […]

[4] = biological target: T1, FAP; experiment: FAP dipeptidyl peptidase assay; assay type: biochemical
Protocol: Quantitative assay for dipeptidyl peptidase activity were developed using Ala-Pro-AFC as the substrate as described by Park et al^18. Purified protein was mixed with 5-10-fold volumes of reaction buffer (100 mM NaCl, 100 mM Tris, pH 7.8), and added to an equal volume of 0.5 mM Ala-Pro-AFC in reaction buffer followed by incubation for 1 h at 37° C. Release of free AFC was measured in a DTX 880 Multimode Detector (Beckman, Fullerton, Calif.) using the 395 nm excitation/530 nm emission filter set.

[5] = biological target: T2, FAP (Homo sapiens, UniProt Q12884); conditions: previously demonstrated; cited from earlier work
T2 sequence (Q12884 1-760): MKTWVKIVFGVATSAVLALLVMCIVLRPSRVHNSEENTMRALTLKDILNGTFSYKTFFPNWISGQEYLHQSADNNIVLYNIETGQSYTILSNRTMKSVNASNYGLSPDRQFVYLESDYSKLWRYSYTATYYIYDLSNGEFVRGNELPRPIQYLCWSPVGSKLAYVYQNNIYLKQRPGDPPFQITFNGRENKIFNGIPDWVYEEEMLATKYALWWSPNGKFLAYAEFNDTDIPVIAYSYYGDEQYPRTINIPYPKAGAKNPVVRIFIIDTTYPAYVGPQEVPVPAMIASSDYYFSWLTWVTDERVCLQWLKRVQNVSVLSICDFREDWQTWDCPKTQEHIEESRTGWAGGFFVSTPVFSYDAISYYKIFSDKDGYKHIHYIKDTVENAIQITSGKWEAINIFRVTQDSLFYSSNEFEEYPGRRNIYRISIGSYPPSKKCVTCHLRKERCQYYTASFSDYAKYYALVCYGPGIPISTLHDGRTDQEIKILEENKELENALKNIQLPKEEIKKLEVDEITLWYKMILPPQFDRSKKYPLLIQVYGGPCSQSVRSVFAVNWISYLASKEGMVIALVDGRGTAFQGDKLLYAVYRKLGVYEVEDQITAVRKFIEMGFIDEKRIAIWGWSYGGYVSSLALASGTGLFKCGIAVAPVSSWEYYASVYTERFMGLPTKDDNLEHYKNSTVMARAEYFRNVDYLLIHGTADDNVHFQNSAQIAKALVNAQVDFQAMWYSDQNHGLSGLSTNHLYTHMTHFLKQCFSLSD

[6] = system: all cell lines tested; experiment: Cytotoxicity, average IC50 over cell lines; assay type: cell-based

| Compound | hydrolysis of FITC-quenched protein by FAP [1] | Occurences [2] | Percentage [2] | Normalized Ion Current [3] | cleavage by FAP [5] | other results |
| --- | --- | --- | --- | --- | --- | --- |
| Gelatin | readily hydrolyzed |  |  |  |  | digestion by FAP relative to collagen I [1]: ~10 fold |
| P.AGQDGRPGPPGPPGARGQAG.V: FAP cleavage fragment of 100 kDa and 8.5 kDa recombinant human gelatin, MH+ 1799.89 |  | 1 | 0.48 | 1.0 |  |  |
| C[C@H](N)C(=O)N1CCC[C@H]1C(=O)Nc1ccc2c(C(F)(F)F)cc(=O)oc2c1 [Ala-Pro-AFC] (HELM PEPTIDE1{A.P.[O=c1cc(C(F)(F)F)c2ccc(N[*:1])cc2o1]}$$$$V2.0) |  |  |  |  |  | cleavage of dipeptide substrate by purified FAP [4]: same kinetic parameters as previously described |
| P.KGAAGEPGKAGERGVPGPPGAVGP.A: FAP cleavage fragment of 100 kDa and 8.5 kDa recombinant human gelatin, MH+ 2113.12 |  | 5 | 2.38 | 46.8 |  |  |
| Collagen IV: FITC-quenched DQ collagen IV from human placenta; in b297 Collagen IV of the cited literature | not all digested |  |  |  | not |  |
| Collagen I: FITC-quenched DQ collagen I from bovine skin; in b297 Collagen I of the cited literature | readily hydrolyzed |  |  |  | could cleave |  |
| fibronectin |  |  |  |  | not |  |
| CC(=O)O[C@H]1C(=O)[C@@]2(C)[C@H]([C@H](OC(=O)c3ccccc3)[C@]3(O)C[C@H](OC(=O)[C@H](O)[C@@H](NC(=O)c4ccccc4)c4ccccc4)C(C)=C1C3(C)C)[C@]1(OC(C)=O)CO[C@@H]1C[C@@H]2O [paclitaxel] |  |  |  |  |  | IC50 [6]: 10 nM |
| P.AGKDGEAGAQGPPGP.A: FAP cleavage fragment of 100 kDa and 8.5 kDa recombinant human gelatin, MH+ 1308.62 (PAGKDGEAGAQGPPGPA) |  | 2 | 0.95 | 234.8 |  | relative abundance of fragment by integrated ion current [3]: most abundantly identified fragment |
| C/C=C(/C)C(=O)O[C@H]1C(C)=C2[C@H]([C@@H]1OC(=O)CCCCCCC)[C@@](C)(OC(C)=O)C[C@H](OC(=O)CCC)[C@@]1(O)[C@H]2OC(=O)[C@@]1(C)O [thapsigargin] |  |  |  |  |  | IC50 [6]: 0.1 nM |
